Values of other authors, collected in paper PMC9826382.

Target: HOP TPR2A (Homo sapiens) (UniProt P31948)
Assay: SPR

Sequence of UniProt P31948 (P31948 223-352): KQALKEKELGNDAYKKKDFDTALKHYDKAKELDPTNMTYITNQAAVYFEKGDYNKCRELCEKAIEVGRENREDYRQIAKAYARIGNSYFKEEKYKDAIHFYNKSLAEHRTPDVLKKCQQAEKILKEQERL

Kd: 11 µM
Substance: HSP90 C-terminal peptide
